B1: Huntingtin-associated protein 1 (Homo sapiens), P54257-2 (parent)
chain: MRPKRLGRCCAGSRLGPGDPAALTCAPSPSASPAPEPSAQPQARGTGQRVGSRATSGSQFLSEARTGARPASEAGAKAGARRPSAFSAIQGDVRSMPDNSDAPWTRFVFQGPFGSRATGRGTGKAAGIWKTPAAYVGRRPGVSGPERAAFIRELEEALCPNLPPPVKKITQEDVKVMLYLLEELLPPVWESVTYGMVLQRERDLNTAARIGQSLVKQNSVLMEENSKLEALLGSAKEEILYLRHQVNLRDELLQLYSDSDEEDEDEEEEEEEKEAEEEQEEEEAEEDLQCAHPCDAPKLISQEALLHQHHCPQLEALQEKLRLLEEENHQLREEASQLDTLEDEEQMLILECVEQFSEASQQMAELSEVLVLRLENYERQQQEVARLQAQVLKLQQRCRMYGAETEKLQKQLASEKEIQMQLQEEETLPGFQETLAEELRTSLRRMISDPVYFMERNYEMPRGDTSSLRYDFRYSEDREQVRGFEAEEGLMLAADIMRGEDFTPAEEFVPQEELGAAKKVPAEEGVMEEAELVSEETEGWEEVELELDEATRMNVVTSALEASGLGPSHLDMNYVLQQLANWQDAHYRRQLRWKMLQKGECPHGALPAASRTSCRSSCR

Variants of: B1
Details: with hd_human HTT

| Variant | effect of a mutation on the interaction |
| --- | --- |
| T441M | increasing interaction |

From IntAct's records for PubMed 18192679
